How the values were obtained:
[1] = target: BAFF (PeproTech, Cat: 310-13) (UniProt Q9Y275 134-285); experiment: ELISA, BAFF coated at 1 ug/mL, anti-human Fc-HRP, OD450
Procedure: The capabilities of fusion proteins B606401, B637302, B746201, and B805201 to bind to BAFF and APRIL were assessed by ELISA as follows:
(§1) BAFF (PeproTech, Cat: 310-13) or ARPIL (Acro Biosystems, Cat: APL-H52D1) was diluted to 1 μg/mL with PBS, and a 96-well plate was coated with the dilution overnight at 4° C. The plate was washed with PBST and blocked with Blocking Buffer (PBST containing 1% BSA) at 37° C. for 1 h. The plate was tapped. The test antibodies were diluted with Blocking Buffer. Incubation was performed at 37° C. for 1.5 h. The plate was washed with PBST. An HRP-mouse anti-human Fc antibody (GenScript, Cat: A01854-200) was diluted with Blocking Buffer. Incubation was performed at 37° C. for 40 min. The plate was washed with PBST. 100 μL of TMB substrate solution (Biopanda, Cat: TMB-S-003) was added, and color development was performed at 37° C. for 3 min. 100 μL of ELISA stop solution (Solarbio, Cat: C1058) was added. OD450 was measured.

[2] = target: T1, APRIL (Acro Biosystems, Cat: APL-H52D1) (UniProt O75888 115-250, limits assumed); experiment: ELISA, APRIL coated at 1 ug/mL, anti-human Fc-HRP, OD450
T1 construct: also called ARPIL
T1 sequence (looked up): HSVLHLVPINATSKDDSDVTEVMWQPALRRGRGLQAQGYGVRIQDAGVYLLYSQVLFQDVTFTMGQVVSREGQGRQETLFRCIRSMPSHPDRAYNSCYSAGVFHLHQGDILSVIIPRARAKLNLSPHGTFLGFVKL
Procedure: as §1, with “The capabilities of B613301, B613302, and B613303, which are fusion proteins of anifrolumab and TACI-BCMA, to bind to BAFF and APRIL were assessed by ELISA as follows: [0548] BAFF (PeproTech,” for “BAFF (PeproTech,”, “96-well plate (Costar, Cat: 3590) was coated” for “96-well plate was coated”

EC50 [1]: 0.256 nM
EC50 [2]: 1.25 nM
Emax [2]: 2.5
B1: Telitacicept (RCT-18) (Fc fusion)
chain: SRVDQEERFPQGLWTGVAMRSCPEEQYWDPLLGTCMSCKTICNHQSQRTCAAFCRSLSCRKEQGKFYDHLLRDCISCASICGQHPKQCAYFCENKLRSPVNLPPELDKTHTCPPCPAPEAEGAPSVFLFPPKPKDTLMISRTPEVTCVVVDVSHEDPEVKFNWYVDGVEVHNAKTKPREEQYNSTYRVVSVLTVLHQDWLNGKEYKCKVSNKALPSSIEKTISKAKGQPREPQVYTLPPSRDELTKNQVSLTCLVKGFYPSDIAVEWESNGQPENNYKTTPPVLDSDGSFFLYSKLTVDKSRWQQGNVFSCSVMHEALHNHYTQKSLSLSPGK
notes: Positive control TACI-Fc; also called RC18
